Laboratory results as given in patent US20120189639A1 (Merck Sharp & Dohme, published 2012).
Changes are numbered by the printed parent chain.

T1: hGITR-hIgG (human, UniProt Q9Y5U5 26-161, limits assumed)
T1 construct: not shown: human IgG part of the fusion
T1 sequence: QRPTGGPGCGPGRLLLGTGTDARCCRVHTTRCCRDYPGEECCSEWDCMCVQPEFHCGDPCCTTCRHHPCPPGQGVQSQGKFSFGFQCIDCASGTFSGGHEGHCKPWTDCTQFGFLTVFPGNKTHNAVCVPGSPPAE

T2: human GITR on naïve CD4+ T cells (human, UniProt Q9Y5U5 26-241)
T2 sequence: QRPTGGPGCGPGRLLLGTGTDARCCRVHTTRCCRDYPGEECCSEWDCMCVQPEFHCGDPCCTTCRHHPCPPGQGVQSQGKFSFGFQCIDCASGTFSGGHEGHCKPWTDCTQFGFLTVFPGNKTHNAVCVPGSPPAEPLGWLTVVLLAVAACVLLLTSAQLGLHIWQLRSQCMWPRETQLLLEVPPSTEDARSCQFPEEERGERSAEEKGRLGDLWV

B1: 9E5 (antibody, V domains shown)
VH: QVTLKESGPGILQPSQTLSLTCTFSGFSLSTYGVGVGWIRQPSGKGLEWLANIWWDDDNYYNPSLIHRLTVSKDTSNNQAFLKITNVDTAETATYYCAQIKEPRDWFFEFWGPGTMVSVSS
VL: DIQMTQTPSSMPASLGERVTIFCRASQGVNNFLTWYQQKPDGTIKPLIFYTSNLQSGVPSRFSGSGSGTDYSLSISSLEPEDFAMYYCQQYHGFPNTFGAGTKLELKR
notes: Parental rodent anti-human GITR monoclonal antibody from a hybridoma; kappa VL; also called 9E5.C1
B2: 31H6 (antibody, V domains shown)
VH: B1 VH with N59K, I66K, H67N, V71I
VL: B1 VL with F32Y
notes: Parental rodent anti-human GITR monoclonal antibody from a hybridoma; kappa VL; also called 31H6.B7
B3: 35D8 (antibody, V domains shown)
VH: EVQLQESGPSLVKPSQTLSLTCSVTGDSITSGYWNWIRKFPGNKLEYMGYISYSGSTYYNPSLRGRISITRDTSKSQYYLQLSSVTTEDTATYYCSRRHLGSGYGWFAYWGQGTLVTVSA
VL: DIVMTQSHKFMSTSVGDRVSITCKASQDVNTAVAWYQQKPGQSPKLLIYWASTRHTGVPDRFTGSGSGTDYALTINSVQAEDLALYYCQQHSYTPPWTFGGGTKLEIRR
notes: Parental rodent anti-human GITR monoclonal antibody from a hybridoma; kappa VL; also called 35D8.B10
B4: 49A1 (antibody, V domains shown)
VH: B3 VH with L45F, Y50F, S56N, G65S, S76N, Y79F, Q81H, S83N, G101I
VL: B3 VL with D1V, V15I, S20N, N30I, T31S, Y71F, A72T, L83R, K104N, R108K
notes: Parental rodent anti-human GITR monoclonal antibody from a hybridoma; kappa VL; also called 49A1.B1
B5: 61F6 (antibody, V domains shown)
VH: QVQLQQSGAELARPGASVKMSCKASGYTFTSYTMHWVKQRPGQGLEWIGYINPRSVYTNYNQKFKDKATLTADKSSSTAYMQLSSLTSEDSAVYYCARLGGYYDTMDYWGQGTSVTVSS
VL: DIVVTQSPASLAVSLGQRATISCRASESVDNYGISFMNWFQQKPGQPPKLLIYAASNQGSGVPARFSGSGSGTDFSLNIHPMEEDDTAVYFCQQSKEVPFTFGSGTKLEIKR
notes: Parental rodent anti-human GITR monoclonal antibody from a hybridoma; kappa VL; also called 61F6.B9; hybridoma PTA-9893

biological target: T1, hGITR-hIgG; experiment: BIAcore SPR; hGITR-hIgG capture antigen, mAb analyte; apparent Kd
Protocol: (§1) BIAcore determinations are performed essentially as described at Example 4 of co-pending, commonly assigned U.S. patent application Ser. No. 11/511,635 (filed 29 Aug. 2006). Briefly, binding partners are immobilized on a BIAcore CM5 sensor chip using standard amine-coupling procedure. Kinetic constants for the various interactions are determined using BIAevaluation software 3.1. The Kd is determined using the calculated dissociation and association rate constants.

Binder	Kd [nM]
B1	0.012
B2	≤ 0.005
B3	0.25
B4	0.665
B5	12.2

biological target: T2, human GITR on naïve CD4+ T cells; experiment: cell-based or functional assay

Binder	proliferation of naïve CD4+ T cells, mean, at 0.04 ng/mL Ab	proliferation of naïve CD4+ T cells, mean, at 0.15 ng/mL Ab	proliferation of naïve CD4+ T cells, mean, at 0.61 ng/mL Ab	proliferation of naïve CD4+ T cells, mean, at 2.4 ng/mL Ab	proliferation of naïve CD4+ T cells, mean, at 9.8 ng/mL Ab	proliferation of naïve CD4+ T cells, mean, at 39.1 ng/mL Ab	proliferation of naïve CD4+ T cells, mean, at 156 ng/mL Ab	proliferation of naïve CD4+ T cells, mean, at 625 ng/mL Ab	proliferation of naïve CD4+ T cells, mean, at 2500 ng/mL Ab	proliferation of naïve CD4+ T cells, mean, at 10000 ng/mL Ab
B5	34900	32000	37600	61300	96300	107000	108000	105000	96300	93400

biological target: T1, hGITR-hIgG; experiment: BIAcore SPR; hGITR-hIgG capture antigen, mAb analyte
Protocol: as §1

Binder	koff [s⁻¹]	kon [M⁻¹ s⁻¹]
B1	2.7e-05	2.33e+06
B2	7e-06	1.57e+06
B3	0.0002	801000
B4	0.000318	478000
B5	0.0135	1.11e+06

biological target: T2, human GITR on naïve CD4+ T cells; experiment: cell-based or functional assay; remark: another data set of the same source

Binder	proliferation of naïve CD4+ T cells, mean, at 0.4 ng/mL Ab	proliferation of naïve CD4+ T cells, mean, at 0.9 ng/mL Ab	proliferation of naïve CD4+ T cells, mean, at 2.2 ng/mL Ab	proliferation of naïve CD4+ T cells, mean, at 5.2 ng/mL Ab	proliferation of naïve CD4+ T cells, mean, at 12.6 ng/mL Ab	proliferation of naïve CD4+ T cells, mean, at 30.1 ng/mL Ab	proliferation of naïve CD4+ T cells, mean, at 72.3 ng/mL Ab	proliferation of naïve CD4+ T cells, mean, at 173.6 ng/mL Ab	proliferation of naïve CD4+ T cells, mean, at 416.7 ng/mL Ab	proliferation of naïve CD4+ T cells, mean, at 1000.0 ng/mL Ab
B1	60100	60900	69200	77700	85700	83400	85300	84600	79700	83600
B2	58500	57000	67600	79600	90500	94700	98600	96900	86900	87500
B3	52300	50700	59800	71400	86200	95300	92400	96200	89800	97300
B4	54300	54100	61100	72200	86000	95500	96100	93600	86300	78000
